Data set [1] concerns the target T1, CkTbS (Camellia sinensis, UniProt A0A6C0WX00, T241I).
T1 construct: gene TBS; full-length, recombinant from E. coli BL21(DE3); N-terminal His6-SUMO tag cleaved with ULP1
In words: in vitro methylation assay, HPLC. The following applies: SAM as methyl donor. In kind it is biochemical.

In data set [2] the target is T2, CkTbS (Camellia sinensis, UniProt A0A6C0WX00, S270C).
T2 construct: gene TBS; full-length, recombinant from E. coli BL21(DE3); N-terminal His6-SUMO tag cleaved with ULP1
Briefly: in vitro methylation assay, HPLC. In kind it is biochemical. The following applies: SAM as methyl donor; printed as C270S, but CkTbS residue 270 is Ser.

Data set [3] has as its target T3, CkTbS (Camellia sinensis, UniProt A0A6C0WX00, H226R/T241I/S270C).
T3 construct: gene TBS; full-length, recombinant from E. coli BL21(DE3); N-terminal His6-SUMO tag cleaved with ULP1
In words: in vitro methylation assay, HPLC. As to conditions: SAM as methyl donor; triple mutant, composition from the three variable residues. In kind it is biochemical.

Data set [4] deals with the molecule itself. Briefly: crystal structure; CkTcS (eight N-terminal residues truncated) mixed with 2 mM SAH and 5 mM 1,3,7-trimethyluric acid; hanging drop, 4 °C, 0.1 M HEPES (pH 7.5), 1 M sodium citrate; 3.14 Å; homodimer in the crystal lattice.
Substrate in data set [5]: Cn1c(=O)c2c([nH]c(=O)n2C)n(C)c1=O
Briefly: theacrine formation by HPLC-MS. In kind it is biochemical, Camellia sinensis. As to conditions: 1.5 mM SAM, 200 μM MgCl2, 100 mM Tris-HCl pH 7.0, 27 °C.

Substrate in the data set “purified protein”: C[S+](CC[C@H](N)C(=O)O)C[C@H]1O[C@@H](n2cnc3c(N)ncnc32)[C@H](O)[C@@H]1O
In words: purified protein. As to conditions: 50 μM 1,3,7-trimethyluric acid, 200 μM MgCl2, 100 mM Tris-HCl pH 7.0, 27 °C.

Substrate in data set [6]: Cn1cnc2[nH]c(=O)[nH]c(=O)c21
Briefly: theobromine formation by HPLC-MS. The following applies: 1.5 mM SAM, 200 μM MgCl2, 100 mM Tris-HCl pH 7.0, 27 °C. In kind it is biochemical, Camellia sinensis.

T2 sequence (A0A6C0WX00 whole entry S270C): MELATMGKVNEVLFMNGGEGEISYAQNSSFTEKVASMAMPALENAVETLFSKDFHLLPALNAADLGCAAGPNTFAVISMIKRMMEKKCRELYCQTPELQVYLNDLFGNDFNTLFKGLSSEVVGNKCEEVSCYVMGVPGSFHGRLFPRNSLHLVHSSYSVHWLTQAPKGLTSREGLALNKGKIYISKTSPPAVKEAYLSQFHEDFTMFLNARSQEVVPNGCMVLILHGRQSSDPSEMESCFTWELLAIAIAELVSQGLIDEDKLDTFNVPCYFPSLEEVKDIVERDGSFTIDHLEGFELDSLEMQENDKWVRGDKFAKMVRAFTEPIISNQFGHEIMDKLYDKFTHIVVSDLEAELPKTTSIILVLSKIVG
T1 sequence (A0A6C0WX00 whole entry T241I): as the sequence (A0A6C0WX00 whole entry S270C) above, with T241I, C270S counted along it
T3 sequence (A0A6C0WX00 whole entry H226R/T241I/S270C): as the sequence (A0A6C0WX00 whole entry S270C) above, with H226R, T241I counted along it

As for `Cn1c(=O)c2c([nH]c(=O)n2C)n(C)c1=O` [compound 5, 1,3,7-trimethyluric acid], the “in vitro methylation assay, HPLC” value is “Single mutation of T241I or C270S on CkTbS led to a moderate increase” on CkTbS [1]; “Single mutation of T241I or C270S on CkTbS led to a moderate increase” on CkTbS [2]; “the double and triple mutations further increased the N-methyltransferase activity” at CkTbS [3].

B1: theacrine synthase CkTcS (N9-methyltransferase), N-terminal eight residues truncated (enzyme, Camellia assamica var. kucha (Kucha), UniProt A0A6C0WW36 9-370, looked up)
chain: VKEVLFMNTGEGESSYVQNSSFTEKVASMAMPALENAVETLFSKDFHLFQAINAADLGCATGPNTFAVISTIKRMMEKKCRELNCQTLELQVYMNDLFGNDFNTLFKGLSSKVIGNKCEEVSCYVMGVPGSFHGRLFPRNSLHLVHSSYSVHWLTQAPKGLTSREGLALNKGRIYISKTSPPVVREAYLSQFHEDFTMFLNARSQEVVPNGCMVLILRGRQSSDPSDMQSCFIWELLAIAIAELVSQGLIDEDKLDTFNIPCYFPSLEEVKDIVERDGSFTIDHMEGFELDSLQMQENDKWVRGEKFAKIVRAFTEPIISNQFGHEIMDKLYDKFTHIVVSDLEAKLPKTTSIILVLSKIVG
notes: CkTcS, theacrine synthase (N9-methyltransferase) of Camellia assamica var. kucha (Kucha); for crystallization eight residues on the N-terminal were truncated; source: E. coli BL21(DE3), purified (Nickel column, ion-exchange, size-exclusion); not shown: His6, N-terminal, cleaved; SUMO, N-terminal, cleaved
On to B1, for which the “stoichiometry N” value in data set [4] was 2.

B2: CkCS (Camellia sinensis var. assamica) (protein)
chain: MELATREKVNEVLFMNRGEGESSYAQNSSFTQQVASMAQPALENAVETLFSKDFHLQALNAADLGCAAGPNTFAVISTIKRMMEKKCRELNCQTLELQVYLNDLFGNDFNTLFKGLSSEVIGNKCEEVPCYVMGVPGSFHGRLFPRNSLHLVYSSYSVHWLTQAPKGLTSREGLALNKGKIYISKTSPPVVREAYLSQFHEDFTMFLNYRSQEMVPNGCMVLILRGRQCFDPSDMQSCFTWELLALAIAELVSQGLIDEDKLDTFNIPSYFASLEEVKDIVERDGSFTIDHIEGFDLDSVEMQENDKWVRGEKFTKVVRAFSEPIISSQFGHEIMDKLYDKFTHIVVSDLEAKLPKTTSIILVLSKIVG
notes: full-length, recombinant from E. coli BL21(DE3); N-terminal His6-SUMO tag cleaved with ULP1
For the molecule B2, in data set [5], the Michaelis constant (Km) worked out at 71.49 ± 15.60 µM and the kcat was 0.12 ± 0.01 ×10^-3 s^-1.

B3: CkTcS (Camellia sinensis var. assamica) (protein)
chain: MELATRGKVKEVLFMNTGEGESSYVQNSSFTEKVASMAMPALENAVETLFSKDFHLFQAINAADLGCATGPNTFAVISTIKRMMEKKCRELNCQTLELQVYMNDLFGNDFNTLFKGLSSKVIGNKCEEVSCYVMGVPGSFHGRLFPRNSLHLVHSSYSVHWLTQAPKGLTSREGLALNKGRIYISKTSPPVVREAYLSQFHEDFTMFLNARSQEVVPNGCMVLILRGRQSSDPSDMQSCFIWELLAIAIAELVSQGLIDEDKLDTFNIPCYFPSLEEVKDIVERDGSFTIDHMEGFELDSLQMQENDKWVRGEKFAKIVRAFTEPIISNQFGHEIMDKLYDKFTHIVVSDLEAKLPKTTSIILVLSKIVG
notes: full-length, recombinant from E. coli BL21(DE3); N-terminal His6-SUMO tag cleaved with ULP1; homodimer
Consider B3, for which the Km in “purified protein” amounted to 109.50 µM; in data set [5] it was 4.68 ± 0.72 µM; in data set [6], 226.20 ± 33.95 µM. Further, the kcat in data set [5] is 11.42 ± 0.37 ×10^-3 s^-1; in data set [6], 6.07 ± 0.21 ×10^-3 s^-1.

B4: CkTbS (Camellia sinensis var. assamica) (protein)
chain: MELATMGKVNEVLFMNGGEGEISYAQNSSFTEKVASMAMPALENAVETLFSKDFHLLPALNAADLGCAAGPNTFAVISMIKRMMEKKCRELYCQTPELQVYLNDLFGNDFNTLFKGLSSEVVGNKCEEVSCYVMGVPGSFHGRLFPRNSLHLVHSSYSVHWLTQAPKGLTSREGLALNKGKIYISKTSPPAVKEAYLSQFHEDFTMFLNARSQEVVPNGCMVLILHGRQSSDPSEMESCFTWELLAIAIAELVSQGLIDEDKLDTFNVPSYFPSLEEVKDIVERDGSFTIDHLEGFELDSLEMQENDKWVRGDKFAKMVRAFTEPIISNQFGHEIMDKLYDKFTHIVVSDLEAELPKTTSIILVLSKIVG
notes: as for B2
In the case of B4, in data set [5], the Km is 162.20 ± 27.80 µM and the kcat is 0.18 ± 0.01 ×10^-3 s^-1.

(Values after article PMC7081346, “Identification and characterization of N9-methyltransferase involved in converting caffeine into non-stimulatory theacrine in tea” (Nature Communications, 2020).)
